In publication PMC12992115 (Nature Cell Biology, 2026):
Several values for one entry are separate records, joined by “and”; a condition that tells them apart may be missing. Equal values may be shown once.

Key:
[1] = biological target: BicD2(25–400) with SpyCatcher003 at the C terminus (mouse) (UniProt Q921C5); assay: mass photometry
[2] = biological target: truncated kinesin-1 rigor mutant (KIF5B(1–490)) with SpyTag003 at the C terminus (UniProt P33176); assay: mass photometry
[3] = biological target: BicD2–superfolder green fluorescent protein (sfGFP), amino acids 25–400 (UniProt Q921C5); assay: pull-down + other: mass photometry
Chain of BicD2–superfolder green fluorescent protein (sfGFP), amino acids 25–400 (Q921C5 25-400): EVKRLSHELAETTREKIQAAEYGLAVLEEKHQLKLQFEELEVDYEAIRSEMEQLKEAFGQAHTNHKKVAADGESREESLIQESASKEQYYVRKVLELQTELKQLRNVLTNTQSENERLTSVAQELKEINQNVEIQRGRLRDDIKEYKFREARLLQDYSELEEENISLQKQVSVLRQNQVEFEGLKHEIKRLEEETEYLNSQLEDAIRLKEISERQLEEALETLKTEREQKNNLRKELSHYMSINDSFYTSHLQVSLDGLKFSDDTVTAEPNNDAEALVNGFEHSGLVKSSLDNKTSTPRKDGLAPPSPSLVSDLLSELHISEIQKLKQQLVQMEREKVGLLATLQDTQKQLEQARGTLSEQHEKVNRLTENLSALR

[4] = biological target: BicD2–rigor kinesin conjugate (BicD2(25–400)–SpyCatcher003 covalently linked to KIF5B(1–490) rigor mutant–SpyTag003) (mouse | not stated) (UniProt Q921C5); assay: three-colour single-molecule TIRF co-localization
Chain of BicD2–rigor kinesin conjugate (BicD2(25–400)–SpyCatcher003 covalently linked to KIF5B(1–490) rigor mutant–SpyTag003) (mouse | not stated) (Q921C5 25-400, change not shown): as the sequence (Q921C5 25-400) above

[5] = biological target: Biotinylated BicD2 (amino acids 25–400) (mouse) (UniProt Q921C5); assay: three-colour single-molecule TIRF co-localization
Chain of Biotinylated BicD2 (amino acids 25–400) (mouse) (Q921C5 25-400): as above

[6] = biological target: the molecule itself; assay: mass photometry

Q: Which results are given for “BicD2(25–400) with SpyCatcher003 at the C terminus (from UniProt Q921C5 25-400) (domain or fragment)”?
A: stoichiometry N [1]: 2; stoichiometry N (BicD2:rigor kinesin (2:2)) [2]: 1

Q: “cytoplasmic dynein from rat-brain lysate (complex)” was tested. Which stoichiometry N (dynein per DDB complex) [3] did it give?
A: 1 and 2

Q: How did the frequency of three-colour dynein co-localization [4] turn out when “recombinant full-length human cytoplasmic dynein-1 complex co-expressed with its five accessory chains (from UniProt Q14204;Q13409;O43237;P63172;P63167;Q9NP97)” was run?
A: 0.028

Q: And the frequency of three-colour dynein co-localization [5]?
A: 0.018

B1: truncated kinesin-1 rigor mutant (KIF5B(1–490)) with SpyTag003 at the C terminus (domain or fragment)
chain: MADLAESNIKVMCRFRPLNESEVNRGDKYIAKFQGEDTVVIACKPYAFDRVFQSSTSQEQVYNDAAKKIVKDVLEGYNGTIFAYGQTSSGKNHTMEGKLHDPEGMGIIPRIVQDIFNYIYSMDENLEFHIKVSYFEIYLDKIRDLLDVSKTNLSVHEDKNRVPYVKGATERFVSSPDEVMDTIDEGKSNRHVAVTNMNEHSSRSHSIFLINVKQENTQTEQKLSGKLYLVDLAGSEKVSKTGAEGAVLDEAKNINKSLSALGNVISALAEGSTYVPYRDSKMTRILQDSLGGNARTTIVICCSPSSYNESETKSTLLFGQRAKTIKNTVSVNVELTAEQWKKKYEKEKEKNKILRNTIQWLENELNRWRNGETVPIDEQFDKEKANLEAFTVDKDITLTNDKPATAIGVIGNFTDAERRKAEEEIAKLYKQLDDKDEEINQQSQLVEKLKTQMLDQEELLASTRRDQDNMQAELNRLQAENDASKEEVKE
modifications: cyanine 5 label (Fig. 5d) or CF488 label (Fig. 5h)
Q: How did the “stoichiometry N” value [6] turn out when B1 was run?
A: 2
